We go through 27 molecules from paper PMC10786891, “Massively parallel profiling of RNA-targeting CRISPR-Cas13d”.

First the molecules themselves.
B1: target 1 U11C,G12A (mixed)
RNA 1: CACCCGUGCAAAAAUGCAGGGGUCUAAAACUGAGCGGAUAACCUCUCUAUGG
RNA 2: GGGAAUGGAUCCACAUCUACGAAUUCGUACCAUAGAGAGACUAUCCGCUCACCGAGAUCGGAAGAGCACACGU
B2: target 1 insA 3' of 4,insG 3' of 1 (mixed)
RNA 1: CACCCGUGCAAAAAUGCAGGGGUCUAAAACUGAGCGGAUAACCUCUCUAUGG
RNA 2: GGGAAUGGAUCCACAUCUACGAAUUCGUACCAUAGAGAGGUUAUCCGCAUCAGCCGAGAUCGGAAGAGCACACGU
B3: target 1 C4G,C6U (mixed)
RNA 1: CACCCGUGCAAAAAUGCAGGGGUCUAAAACUGAGCGGAUAACCUCUCUAUGG
RNA 2: GGGAAUGGAUCCACAUCUACGAAUUCGUACCAUAGAGAGGUUAUCUGGUCACCGAGAUCGGAAGAGCACACGU
B4: target 1 insA 3' of 17,insA 3' of 13 (mixed)
RNA 1: CACCCGUGCAAAAAUGCAGGGGUCUAAAACUGAGCGGAUAACCUCUCUAUGG
RNA 2: GGGAAUGGAUCCACAUCUACGAAUUCGUACCAUAGAAGAGAGUUAUCCGCUCACCGAGAUCGGAAGAGCACACGU
B5: target 1 insA 3' of 10,insA 3' of 8 (mixed)
RNA 1: CACCCGUGCAAAAAUGCAGGGGUCUAAAACUGAGCGGAUAACCUCUCUAUGG
RNA 2: GGGAAUGGAUCCACAUCUACGAAUUCGUACCAUAGAGAGGUUAAUACCGCUCACCGAGAUCGGAAGAGCACACGU
B6: target 1 C7A,G17A (mixed)
RNA 1: CACCCGUGCAAAAAUGCAGGGGUCUAAAACUGAGCGGAUAACCUCUCUAUGG
RNA 2: GGGAAUGGAUCCACAUCUACGAAUUCGUACCAUAAAGAGGUUAUACGCUCACCGAGAUCGGAAGAGCACACGU
B7: target 1 insU 3' of 20,insA 3' of 11 (mixed)
RNA 1: CACCCGUGCAAAAAUGCAGGGGUCUAAAACUGAGCGGAUAACCUCUCUAUGG
RNA 2: GGGAAUGGAUCCACAUCUACGAAUUCGUACCAUUAGAGAGGUAUAUCCGCUCACCGAGAUCGGAAGAGCACACGU
B8: target 1 insC 3' of 8,insC 3' of 5 (mixed)
RNA 1: CACCCGUGCAAAAAUGCAGGGGUCUAAAACUGAGCGGAUAACCUCUCUAUGG
RNA 2: GGGAAUGGAUCCACAUCUACGAAUUCGUACCAUAGAGAGGUUAUCCCGCCUCACCGAGAUCGGAAGAGCACACGU
B9: target 1 A16G,C22U (mixed)
RNA 1: CACCCGUGCAAAAAUGCAGGGGUCUAAAACUGAGCGGAUAACCUCUCUAUGG
RNA 2: GGGAAUGGAUCCACAUCUACGAAUUCGUAUCAUAGGGAGGUUAUCCGCUCACCGAGAUCGGAAGAGCACACGU
B10: target 1 insA 3' of 19,insC 3' of 8 (mixed)
RNA 1: CACCCGUGCAAAAAUGCAGGGGUCUAAAACUGAGCGGAUAACCUCUCUAUGG
RNA 2: GGGAAUGGAUCCACAUCUACGAAUUCGUACCAUAAGAGAGGUUAUCCCGCUCACCGAGAUCGGAAGAGCACACGU
B11: target 1 insU 3' of 18,insA 3' of 11 (mixed)
RNA 1: CACCCGUGCAAAAAUGCAGGGGUCUAAAACUGAGCGGAUAACCUCUCUAUGG
RNA 2: GGGAAUGGAUCCACAUCUACGAAUUCGUACCAUAUGAGAGGUAUAUCCGCUCACCGAGAUCGGAAGAGCACACGU
B12: target 1 insU 3' of 18,insG 3' of 6 (mixed)
RNA 1: CACCCGUGCAAAAAUGCAGGGGUCUAAAACUGAGCGGAUAACCUCUCUAUGG
RNA 2: GGGAAUGGAUCCACAUCUACGAAUUCGUACCAUAUGAGAGGUUAUCCGGCUCACCGAGAUCGGAAGAGCACACGU
B13: target 1 insC 3' of 22,insC 3' of 19 (mixed)
RNA 1: CACCCGUGCAAAAAUGCAGGGGUCUAAAACUGAGCGGAUAACCUCUCUAUGG
RNA 2: GGGAAUGGAUCCACAUCUACGAAUUCGUACCCAUCAGAGAGGUUAUCCGCUCACCGAGAUCGGAAGAGCACACGU
B14: target 1 insC 3' of 5,insU 3' of 4 (mixed)
RNA 1: CACCCGUGCAAAAAUGCAGGGGUCUAAAACUGAGCGGAUAACCUCUCUAUGG
RNA 2: GGGAAUGGAUCCACAUCUACGAAUUCGUACCAUAGAGAGGUUAUCCGCCUUCACCGAGAUCGGAAGAGCACACGU
B15: target 1 insA 3' of 22,insG 3' of 1 (mixed)
RNA 1: CACCCGUGCAAAAAUGCAGGGGUCUAAAACUGAGCGGAUAACCUCUCUAUGG
RNA 2: GGGAAUGGAUCCACAUCUACGAAUUCGUACACAUAGAGAGGUUAUCCGCUCAGCCGAGAUCGGAAGAGCACACGU
B16: target 1 A1G,G15U (mixed)
RNA 1: CACCCGUGCAAAAAUGCAGGGGUCUAAAACUGAGCGGAUAACCUCUCUAUGG
RNA 2: GGGAAUGGAUCCACAUCUACGAAUUCGUACCAUAGAUAGGUUAUCCGCUCGCCGAGAUCGGAAGAGCACACGU
B17: target 1 insA 3' of 6,insA 3' of 6 (mixed)
RNA 1: CACCCGUGCAAAAAUGCAGGGGUCUAAAACUGAGCGGAUAACCUCUCUAUGG
RNA 2: GGGAAUGGAUCCACAUCUACGAAUUCGUACCAUAGAGAGGUUAUCCAAGCUCACCGAGAUCGGAAGAGCACACGU
B18: target 1 insC 3' of 11,insA 3' of 3 (mixed)
RNA 1: CACCCGUGCAAAAAUGCAGGGGUCUAAAACUGAGCGGAUAACCUCUCUAUGG
RNA 2: GGGAAUGGAUCCACAUCUACGAAUUCGUACCAUAGAGAGGUCUAUCCGCUACACCGAGAUCGGAAGAGCACACGU
B19: target 1 del7,del18 (mixed)
RNA 1: CACCCGUGCAAAAAUGCAGGGGUCUAAAACUGAGCGGAUAACCUCUCUAUGG
RNA 2: GGGAAUGGAUCCACAUCUACGAAUUCGUACCAUGAGAGGUUAUCGCUCACCGAGAUCGGAAGAGCACACGU
B20: target 1 G15U (mixed)
RNA 1: CACCCGUGCAAAAAUGCAGGGGUCUAAAACUGAGCGGAUAACCUCUCUAUGG
RNA 2: GGGAAUGGAUCCACAUCUACGAAUUCGUACCAUAGAUAGGUUAUCCGCUCACCGAGAUCGGAAGAGCACACGU
B21: target 1 U19G,C22U (mixed)
RNA 1: CACCCGUGCAAAAAUGCAGGGGUCUAAAACUGAGCGGAUAACCUCUCUAUGG
RNA 2: GGGAAUGGAUCCACAUCUACGAAUUCGUAUCAGAGAGAGGUUAUCCGCUCACCGAGAUCGGAAGAGCACACGU
B22: target 1 G15C (mixed)
RNA 1: CACCCGUGCAAAAAUGCAGGGGUCUAAAACUGAGCGGAUAACCUCUCUAUGG
RNA 2: GGGAAUGGAUCCACAUCUACGAAUUCGUACCAUAGACAGGUUAUCCGCUCACCGAGAUCGGAAGAGCACACGU
B23: target 1 A18U,U19A (mixed)
RNA 1: CACCCGUGCAAAAAUGCAGGGGUCUAAAACUGAGCGGAUAACCUCUCUAUGG
RNA 2: GGGAAUGGAUCCACAUCUACGAAUUCGUACCAAUGAGAGGUUAUCCGCUCACCGAGAUCGGAAGAGCACACGU
B24: target 1 insU 3' of 20,insU 3' of 6 (mixed)
RNA 1: CACCCGUGCAAAAAUGCAGGGGUCUAAAACUGAGCGGAUAACCUCUCUAUGG
RNA 2: GGGAAUGGAUCCACAUCUACGAAUUCGUACCAUUAGAGAGGUUAUCCUGCUCACCGAGAUCGGAAGAGCACACGU
B25: target 1 insA 3' of 22,insG 3' of 19 (mixed)
RNA 1: CACCCGUGCAAAAAUGCAGGGGUCUAAAACUGAGCGGAUAACCUCUCUAUGG
RNA 2: GGGAAUGGAUCCACAUCUACGAAUUCGUACACAUGAGAGAGGUUAUCCGCUCACCGAGAUCGGAAGAGCACACGU
B26: target 1 C7U,G17A (mixed)
RNA 1: CACCCGUGCAAAAAUGCAGGGGUCUAAAACUGAGCGGAUAACCUCUCUAUGG
RNA 2: GGGAAUGGAUCCACAUCUACGAAUUCGUACCAUAAAGAGGUUAUUCGCUCACCGAGAUCGGAAGAGCACACGU
B27: target 1 G5C,U11G (mixed)
RNA 1: CACCCGUGCAAAAAUGCAGGGGUCUAAAACUGAGCGGAUAACCUCUCUAUGG
RNA 2: GGGAAUGGAUCCACAUCUACGAAUUCGUACCAUAGAGAGGGUAUCCCCUCACCGAGAUCGGAAGAGCACACGU

The data set deals with T1, EsCas13d, nuclease-dead (Eubacterium siraeum, UniProt B0MS50, R295A;H300A;R849A;H854A).
T1 sequence: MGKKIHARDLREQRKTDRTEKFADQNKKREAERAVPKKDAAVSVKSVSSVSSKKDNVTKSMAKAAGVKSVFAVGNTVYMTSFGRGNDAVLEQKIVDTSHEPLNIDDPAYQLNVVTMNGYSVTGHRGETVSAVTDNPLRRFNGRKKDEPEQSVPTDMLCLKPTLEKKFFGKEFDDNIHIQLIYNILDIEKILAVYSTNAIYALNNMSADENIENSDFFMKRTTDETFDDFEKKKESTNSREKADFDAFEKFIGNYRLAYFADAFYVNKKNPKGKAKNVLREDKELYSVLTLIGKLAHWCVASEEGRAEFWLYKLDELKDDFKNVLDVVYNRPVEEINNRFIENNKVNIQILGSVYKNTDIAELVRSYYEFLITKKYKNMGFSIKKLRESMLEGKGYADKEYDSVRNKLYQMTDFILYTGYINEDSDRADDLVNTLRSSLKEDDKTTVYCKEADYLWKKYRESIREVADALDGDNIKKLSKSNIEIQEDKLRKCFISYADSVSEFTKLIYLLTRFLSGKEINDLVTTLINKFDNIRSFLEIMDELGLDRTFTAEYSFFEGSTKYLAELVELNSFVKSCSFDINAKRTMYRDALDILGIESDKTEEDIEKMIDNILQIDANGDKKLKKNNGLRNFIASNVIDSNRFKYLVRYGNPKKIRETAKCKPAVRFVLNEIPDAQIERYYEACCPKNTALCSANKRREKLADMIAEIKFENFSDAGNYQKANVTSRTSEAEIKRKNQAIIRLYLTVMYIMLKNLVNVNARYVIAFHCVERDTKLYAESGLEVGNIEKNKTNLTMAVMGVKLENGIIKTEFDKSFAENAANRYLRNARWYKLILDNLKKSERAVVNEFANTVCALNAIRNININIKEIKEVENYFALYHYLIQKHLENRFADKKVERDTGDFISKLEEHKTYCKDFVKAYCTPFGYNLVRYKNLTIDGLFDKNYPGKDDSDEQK
The data set is described as follows: crRNA (strand 1, pre-loaded); Mg2+; 40 mM Tris-HCl pH 7.5, 150 mM NaCl, 6 mM MgCl2, 1 mM DTT, 0.1% Tween-20, 0.2 mg/ml BSA; 25 C; 10 min per concentration, then washed. The following applies: tags: His6-TwinStrep-SUMO cleaved; N-terminal SNAP kept (SNAP-Surface 488); label: 3' end held by stalled T7 RNA polymerase.
For orientation: Kd means the free concentration of one partner at which half of the binding sites on the other are occupied at equilibrium, for simple one-to-one binding. Turning to B1, the Kd was found to be 8.9 ± 0.4 nM.

Turning to B2, the Kd turned out to be 5.2 ± 0.4 nM.

Take B3: the Kd was determined as 3.83 ± 0.2 nM. For the molecule B4, the Kd was found to be 10 ± 0.7 nM. On to B5, for which the affinity, expressed as Kd, was 11.3 ± 0.4 nM. As for B6, the figure is 51 ± 5 nM; as for B7, 29.6 ± 2.6 nM; as for B8, 14.6 ± 0.7 nM. The value for B9 was 54 ± 12 nM; that for B10 was 34 ± 4 nM. For the molecule B11, binding was put at a Kd of 68 ± 6 nM.

In turn, B12 registered a Kd of 33.2 ± 2.9 nM. Compared with the last molecule, the Kd is about 2-fold lower.

Molecule B13 registered a Kd of about 70 nM. As for B14, the figure is 15.7 ± 1.3 nM. Consider B15, for which the affinity, expressed as Kd, was 11.2 ± 0.4 nM. Take B16: the Kd was determined as 23 ± 4 nM. As for B17, the figure is 17.4 ± 0.9 nM; as for B18, 27.4 ± 2 nM. Regarding B19, the Kd is 58 ± 6 nM. With B20, the Kd came out at 18.6 ± 1.1 nM. In turn, B21 had a Kd of 74 ± 16 nM. This Kd lies about 4-fold higher than the previous one.

In turn, B22 registered a Kd of 47.2 ± 3.4 nM. B23 yielded a Kd of 42 ± 7 nM.

Molecule B24 gave a Kd of 15.4 ± 0.6 nM. Take B25: the affinity, expressed as Kd, was 51 ± 7 nM. For B26, the Kd was 34 ± 4 nM. As for B27, the figure is 37 ± 5 nM.
